How the values were obtained:
[1] = molecular target: the molecule itself; test: crystal structure; EfTS 7 mg/mL in 25 mM phosphate buffer pH 6.8, 2 mM DTT, with 100 mM dUMP or 4 mM FdUMP; precipitant 2.2-2.5 M ammonium sulfate, 0.1 M HEPES pH 7.5; room temperature; space group P21, two enzyme dimers in the ASU
[2] = molecular target: the molecule itself; test: crystal structure; hTS 20 mg/mL in 50 mM HEPES pH 7.5, 30 mM NaCl, 20 mM beta-mercaptoethanol, with 40 mM dUMP or 2 mM FdUMP; precipitant 27-30 % PEG4000, 30 mM ammonium sulfate, 0.1 M TRIS pH 9; room temperature; space groups C2 or I2, one and half dimer in the ASU

Protein | binding result [1] | binding result [2]
Enterococcus faecalis thymidylate synthase (enzyme, dUMP complex: Cys197 as S,S-(2-hydroxylethyl)thiocysteine (CME197) in subunits B and D, oxidized to sulfenic acid (S-oxycysteine, CSX197) in subunits A and C; FdUMP complex: Cys197 thiol reactive, Thymidylate synthase (EC 2.1.1.45) of Enterococcus faecalis; The homodimer is asymmetric: 5-FTHF copurifies in one active site of each dimer; also called EfTS; TS; source: prepared according to an established procedure [5]; purified) MEEAYLALGKKILEEGHFKEDRTGTGTYSLFGYQMRFDLAKGFPLLTTKRVPFGLIKSELLWFLKGDTNIRYLLERNNHIWDEWAFERYVKSADYQGPDMTDFGHRVLQDPAFAEQYKEEHQKFCDAILNDAEFAEKYGELGNIYGAQWRHWETKDGSFIDQLANVIEMIKTNPDSRRLIVSAWNPEDVPSMALPPCHTMFQFYVNEGKLSCQLYQRSADVFLGVPFNIASYALLTHLIAHETGLEVGEFVHTLGDAHLYQNHVEQMQEQLSREVRSFPTLVLNPDKASVFDFDMEDIKVEGYDPHPTIKAPIAV | binds | 
human thymidylate synthase (enzyme, Thymidylate synthase (EC 2.1.1.45), human, wild type; expressed from pQE-80L with a not-cleavable N-terminal His6-tag (twelve tag residues); the first twenty-five N-terminal residues and the tag were not traced in the structures; also called hTS; Human TS; source: E. coli BL21(DE3), purified (HisTrap HP); not shown: His6, N-terminal, kept) MPVAGSELPRRPLPPAAQERDAEPRPPHGELQYLGQIQHILRCGVRKDDRTGTGTLSVFGMQARYSLRDEFPLLTTKRVFWKGVLEELLWFIKGSTNAKELSSKGVKIWDANGSRDFLDSLGFSTREEGDLGPVYGFQWRHFGAEYRDMESDYSGQGVDQLQRVIDTIKTNPDDRRIIMCAWNPRDLPLMALPPCHALCQFYVVNSELSCQLYQRSGDMGLGVPFNIASYALLTYMIAHITGLKPGDFIHTLGDAHIYLNHIEPLKIQLQREPRPFPKLRILRKVEKIDDFKAEDFQIEGYNPHPTIKMEMAV |  | binds
